In the assay the target is Taxol-stabilized microtubules from porcine brain tubulin, P02550. Nature of the assay: microtubule pelleting assay. Conditions: chain shown with the change;, read off a plot.

The values below come from article PMC9758056.

Taxol-stabilized microtubules from porcine brain tubulin, P02550, sequence (P02550 other isoform, or with tags, fused parts or gaps, chain 1 of 2): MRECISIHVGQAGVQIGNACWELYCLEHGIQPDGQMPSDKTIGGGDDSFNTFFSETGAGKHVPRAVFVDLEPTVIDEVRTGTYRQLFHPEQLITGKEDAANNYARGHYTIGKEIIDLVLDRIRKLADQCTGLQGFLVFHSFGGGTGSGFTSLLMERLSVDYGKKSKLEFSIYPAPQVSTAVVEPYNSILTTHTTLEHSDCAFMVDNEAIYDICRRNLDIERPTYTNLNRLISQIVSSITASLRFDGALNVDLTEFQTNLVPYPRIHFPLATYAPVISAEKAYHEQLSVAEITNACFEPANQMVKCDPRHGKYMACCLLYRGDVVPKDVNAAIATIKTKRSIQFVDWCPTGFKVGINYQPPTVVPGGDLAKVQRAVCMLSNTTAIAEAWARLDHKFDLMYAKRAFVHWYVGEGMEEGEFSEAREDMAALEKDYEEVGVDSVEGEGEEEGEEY
Taxol-stabilized microtubules from porcine brain tubulin, P02550, sequence (chain, as listed by the source, chain 2 of 2): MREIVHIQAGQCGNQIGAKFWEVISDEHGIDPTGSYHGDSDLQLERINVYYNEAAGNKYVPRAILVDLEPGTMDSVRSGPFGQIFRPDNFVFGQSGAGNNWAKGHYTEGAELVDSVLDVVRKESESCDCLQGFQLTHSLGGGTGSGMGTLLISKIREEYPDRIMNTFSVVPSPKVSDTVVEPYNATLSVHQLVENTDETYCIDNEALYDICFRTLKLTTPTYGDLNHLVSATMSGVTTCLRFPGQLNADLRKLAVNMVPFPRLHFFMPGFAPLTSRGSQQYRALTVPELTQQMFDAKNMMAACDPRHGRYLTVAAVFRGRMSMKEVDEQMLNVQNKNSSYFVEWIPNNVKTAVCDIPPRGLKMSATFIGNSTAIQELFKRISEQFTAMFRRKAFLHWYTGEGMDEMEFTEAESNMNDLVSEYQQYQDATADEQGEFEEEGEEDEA

B1: LRRK2^RCKW (catalytic half of LRRK2: ROC, COR, kinase and WD40 domains), wild type, Q5S007 R1384A; K1385A (protein)
chain: KKAVPYNRMKLMIVGNTGSGKTTLLQQLMKTKKSDLGMQSATVGIDVKDWPIQIRDKAARDLVLNVWDFAGREEFYSTHPHFMTQRALYLAVYDLSKGQAEVDAMKPWLFNIKARASSSPVILVGTHLDVSDEKQRKACMSKITKELLNKRGFPAIRDYHFVNATEESDALAKLRKTIINESLNFKIRDQLVVGQLIPDCYVELEKIILSERKNVPIEFPVIDRKRLLQLVRENQLQLDENELPHAVHFLNESGVLLHFQDPALQLSDLYFVEPKWLCKIMAQILTVKVEGCPKHPKGIISRRDVEKFLSKKRKFPKNYMSQYFKLLEKFQIALPIGEEYLLVPSSLSDHRPVIELPHCENSEIIIRLYEMPYFPMGFWSRLINRLLEISPYMLSGRERALRPNRMYWRQGIYLNWSPEAYCLVGSEVLDNHPESFLKITVPSCRKGCILLGQVVDHIDSLMEEWFPGLLEIDICGEGETLLKKWALYSFNDGEEHQKILLDDLMKKAEEGDLLVNPDQPRLTIPISQIAPDLILADLPRNIMLNNDELEFEQAPEFLLGDGSFGSVYRAAYEGEEVAVKIFNKHTSLRLLRQELVVLCHLHHPSLISLLAAGIRPRMLVMELASKGSLDRLLQQDKASLTRTLQHRIALHVADGLRYLHSAMIIYRDLKPHNVLLFTLYPNAAIIAKIADYGIAQYCCRMGIKTSEGTPGFRAPEVARGNVIYNQQADVYSFGLLLYDILTTGGRIVEGLKFPNEFDELEIQGKLPDPVKEYGCAPWPMVEKLIKQCLKENPQERPTSAQVFDILNSAELVCLTRRILLPKNVIVECMVATHHNSRNASIWLGCGHTDRGQLSFLDLNTEGYTSEEVADSRILCLALVHLPVEKESWIVSGTQSGTLLVINTEDGKKRHTLEKMTDSVTCLYCNSFSKQSKQKNFLLVGTADGKLAIFEDKTVKLKGAAPLKILNIGNVSTPLMCLSESTNSTERNVMWGGCGTKIFSFSNDFTIQKLIETRTSQLFSYAAFSDSNIITVVVDTALYIAKQNSPVVEVWDKKTEKLCGLIDCVHFLREVMVKENKESKHKMSYSGRVKTLCLQKNTALWIGTGGGHILLLDLSTRRLIRVIYNFCNSVRVMMTAQLGSLKNVMLVLGYNRKNTEGTQKQKEIQSCLTVWDINLPHEVQNLEKHIEVRKELAEKMRRTSVE
For the molecule B1, the response (fraction microtubule bound) (parent: est. 0.78) stood at 0.35.

B2: LRRK2^RCKW (catalytic half of LRRK2: ROC, COR, kinase and WD40 domains), wild type, Q5S007 S2345D (protein)
chain: KKAVPYNRMKLMIVGNTGSGKTTLLQQLMKTKKSDLGMQSATVGIDVKDWPIQIRDKRKRDLVLNVWDFAGREEFYSTHPHFMTQRALYLAVYDLSKGQAEVDAMKPWLFNIKARASSSPVILVGTHLDVSDEKQRKACMSKITKELLNKRGFPAIRDYHFVNATEESDALAKLRKTIINESLNFKIRDQLVVGQLIPDCYVELEKIILSERKNVPIEFPVIDRKRLLQLVRENQLQLDENELPHAVHFLNESGVLLHFQDPALQLSDLYFVEPKWLCKIMAQILTVKVEGCPKHPKGIISRRDVEKFLSKKRKFPKNYMSQYFKLLEKFQIALPIGEEYLLVPSSLSDHRPVIELPHCENSEIIIRLYEMPYFPMGFWSRLINRLLEISPYMLSGRERALRPNRMYWRQGIYLNWSPEAYCLVGSEVLDNHPESFLKITVPSCRKGCILLGQVVDHIDSLMEEWFPGLLEIDICGEGETLLKKWALYSFNDGEEHQKILLDDLMKKAEEGDLLVNPDQPRLTIPISQIAPDLILADLPRNIMLNNDELEFEQAPEFLLGDGSFGSVYRAAYEGEEVAVKIFNKHTSLRLLRQELVVLCHLHHPSLISLLAAGIRPRMLVMELASKGSLDRLLQQDKASLTRTLQHRIALHVADGLRYLHSAMIIYRDLKPHNVLLFTLYPNAAIIAKIADYGIAQYCCRMGIKTSEGTPGFRAPEVARGNVIYNQQADVYSFGLLLYDILTTGGRIVEGLKFPNEFDELEIQGKLPDPVKEYGCAPWPMVEKLIKQCLKENPQERPTSAQVFDILNSAELVCLTRRILLPKNVIVECMVATHHNSRNASIWLGCGHTDRGQLSFLDLNTEGYTSEEVADSRILCLALVHLPVEKESWIVSGTQSGTLLVINTEDGKKRHTLEKMTDSVTCLYCNSFSKQSKQKNFLLVGTADGKLAIFEDKTVKLKGAAPLKILNIGNVSTPLMCLSESTNSTERNVMWGGCGTKIFSFSNDFTIQKLIETRTSQLFDYAAFSDSNIITVVVDTALYIAKQNSPVVEVWDKKTEKLCGLIDCVHFLREVMVKENKESKHKMSYSGRVKTLCLQKNTALWIGTGGGHILLLDLSTRRLIRVIYNFCNSVRVMMTAQLGSLKNVMLVLGYNRKNTEGTQKQKEIQSCLTVWDINLPHEVQNLEKHIEVRKELAEKMRRTSVE
In the case of B2, the response (fraction microtubule bound) (parent: est. 0.70) turned out to be 0.53.

B3: LRRK2^RCKW (catalytic half of LRRK2: ROC, COR, kinase and WD40 domains), wild type, Q5S007 R1731D; S2345D (protein)
chain: KKAVPYNRMKLMIVGNTGSGKTTLLQQLMKTKKSDLGMQSATVGIDVKDWPIQIRDKRKRDLVLNVWDFAGREEFYSTHPHFMTQRALYLAVYDLSKGQAEVDAMKPWLFNIKARASSSPVILVGTHLDVSDEKQRKACMSKITKELLNKRGFPAIRDYHFVNATEESDALAKLRKTIINESLNFKIRDQLVVGQLIPDCYVELEKIILSERKNVPIEFPVIDRKRLLQLVRENQLQLDENELPHAVHFLNESGVLLHFQDPALQLSDLYFVEPKWLCKIMAQILTVKVEGCPKHPKGIISRRDVEKFLSKKRKFPKNYMSQYFKLLEKFQIALPIGEEYLLVPSSLSDHRPVIELPHCENSEIIIRLYEMPYFPMGFWSRLINRLLEISPYMLSGRERALRPNDMYWRQGIYLNWSPEAYCLVGSEVLDNHPESFLKITVPSCRKGCILLGQVVDHIDSLMEEWFPGLLEIDICGEGETLLKKWALYSFNDGEEHQKILLDDLMKKAEEGDLLVNPDQPRLTIPISQIAPDLILADLPRNIMLNNDELEFEQAPEFLLGDGSFGSVYRAAYEGEEVAVKIFNKHTSLRLLRQELVVLCHLHHPSLISLLAAGIRPRMLVMELASKGSLDRLLQQDKASLTRTLQHRIALHVADGLRYLHSAMIIYRDLKPHNVLLFTLYPNAAIIAKIADYGIAQYCCRMGIKTSEGTPGFRAPEVARGNVIYNQQADVYSFGLLLYDILTTGGRIVEGLKFPNEFDELEIQGKLPDPVKEYGCAPWPMVEKLIKQCLKENPQERPTSAQVFDILNSAELVCLTRRILLPKNVIVECMVATHHNSRNASIWLGCGHTDRGQLSFLDLNTEGYTSEEVADSRILCLALVHLPVEKESWIVSGTQSGTLLVINTEDGKKRHTLEKMTDSVTCLYCNSFSKQSKQKNFLLVGTADGKLAIFEDKTVKLKGAAPLKILNIGNVSTPLMCLSESTNSTERNVMWGGCGTKIFSFSNDFTIQKLIETRTSQLFDYAAFSDSNIITVVVDTALYIAKQNSPVVEVWDKKTEKLCGLIDCVHFLREVMVKENKESKHKMSYSGRVKTLCLQKNTALWIGTGGGHILLLDLSTRRLIRVIYNFCNSVRVMMTAQLGSLKNVMLVLGYNRKNTEGTQKQKEIQSCLTVWDINLPHEVQNLEKHIEVRKELAEKMRRTSVE
For the molecule B3, the response (fraction microtubule bound) (parent: est. 0.70) is 0.1.

B4: LRRK2^RCKW (catalytic half of LRRK2: ROC, COR, kinase and WD40 domains), wild type, Q5S007 K1358A; K1359A (protein)
chain: KKAVPYNRMKLMIVGNTGSGKTTLLQQLMKTAASDLGMQSATVGIDVKDWPIQIRDKRKRDLVLNVWDFAGREEFYSTHPHFMTQRALYLAVYDLSKGQAEVDAMKPWLFNIKARASSSPVILVGTHLDVSDEKQRKACMSKITKELLNKRGFPAIRDYHFVNATEESDALAKLRKTIINESLNFKIRDQLVVGQLIPDCYVELEKIILSERKNVPIEFPVIDRKRLLQLVRENQLQLDENELPHAVHFLNESGVLLHFQDPALQLSDLYFVEPKWLCKIMAQILTVKVEGCPKHPKGIISRRDVEKFLSKKRKFPKNYMSQYFKLLEKFQIALPIGEEYLLVPSSLSDHRPVIELPHCENSEIIIRLYEMPYFPMGFWSRLINRLLEISPYMLSGRERALRPNRMYWRQGIYLNWSPEAYCLVGSEVLDNHPESFLKITVPSCRKGCILLGQVVDHIDSLMEEWFPGLLEIDICGEGETLLKKWALYSFNDGEEHQKILLDDLMKKAEEGDLLVNPDQPRLTIPISQIAPDLILADLPRNIMLNNDELEFEQAPEFLLGDGSFGSVYRAAYEGEEVAVKIFNKHTSLRLLRQELVVLCHLHHPSLISLLAAGIRPRMLVMELASKGSLDRLLQQDKASLTRTLQHRIALHVADGLRYLHSAMIIYRDLKPHNVLLFTLYPNAAIIAKIADYGIAQYCCRMGIKTSEGTPGFRAPEVARGNVIYNQQADVYSFGLLLYDILTTGGRIVEGLKFPNEFDELEIQGKLPDPVKEYGCAPWPMVEKLIKQCLKENPQERPTSAQVFDILNSAELVCLTRRILLPKNVIVECMVATHHNSRNASIWLGCGHTDRGQLSFLDLNTEGYTSEEVADSRILCLALVHLPVEKESWIVSGTQSGTLLVINTEDGKKRHTLEKMTDSVTCLYCNSFSKQSKQKNFLLVGTADGKLAIFEDKTVKLKGAAPLKILNIGNVSTPLMCLSESTNSTERNVMWGGCGTKIFSFSNDFTIQKLIETRTSQLFSYAAFSDSNIITVVVDTALYIAKQNSPVVEVWDKKTEKLCGLIDCVHFLREVMVKENKESKHKMSYSGRVKTLCLQKNTALWIGTGGGHILLLDLSTRRLIRVIYNFCNSVRVMMTAQLGSLKNVMLVLGYNRKNTEGTQKQKEIQSCLTVWDINLPHEVQNLEKHIEVRKELAEKMRRTSVE
In the case of B4, the response (fraction microtubule bound) (parent: est. 0.78) was 0.48.
